According to patent US20250152742A1, “COMPOSITIONS AND METHODS FOR NEUROLOGICAL DISEASES” (Trames Bio, Inc., priority 2022, published 2025):

Tested on: engineered chimeric receptor SEQ ID NO: 33 and its mutants (human α7-nAChR ligand binding domain / human GlyRα1 ion pore domain) in Lenti-X 293T cells
Assay: YFP fluorescence quenching anion reporter plate reader assay (percent quench, EC50)
Format: cell-based
Details: for YFP fluorescence quenching using CNL001 (percent quench): receptor named in row; for YFP fluorescence quenching using Facinicline, 30 nM fac: ligand Facinicline 30 nM; for YFP fluorescence quenching using Facinicline, 300 nM fac: ligand Facinicline 300 nM; for YFP fluorescence quenching using Facinicline, 30 uM fac: ligand Facinicline 30 uM; for YFP fluorescence quenching using TC-6987, 1 uM tc6987: ligand TC-6987 1 uM; for YFP fluorescence quenching using TC-6987, 10 uM tc6987: ligand TC-6987 10 uM; for YFP fluorescence quenching using TC-6987, 500 uM tc6987: ligand TC-6987 500 uM; for YFP fluorescence quenching using Varenicline, 3 nM var: ligand Varenicline 3 nM; for YFP fluorescence quenching using Varenicline, 30 nM var: ligand Varenicline 30 nM; for YFP fluorescence quenching using Varenicline, 300 nM var: ligand Varenicline 300 nM; for YFP fluorescence quenching using Varenicline, 500 nM var: ligand Varenicline 500 nM; for YFP fluorescence quenching using Varenicline, 1 uM var: ligand Varenicline 1 uM
Method in brief: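 Lenti-X 293T cells co-expressing an anion-quenchable YFP were transiently transfected with receptor DNA, then ligand was added in NaI-substituted buffer (pH 7.2) after 30 min at 37 °C. Fluorescence was read about 2 min; percent quench = mean of last 10 s over 15 s pre-ligand baseline.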

[1] = 1 nM CNL001, first column so headed
[2] = 1 nM CNL001, second column so headed
[3] = 1 nM brd (TC-5619/Bradanicline)
[4] = 3 nM brd (TC-5619/Bradanicline)
[5] = 10 nM CNL001, first column so headed
[6] = 10 nM CNL001, second column so headed
[7] = 10 nM brd (TC-5619/Bradanicline)
[8] = 30 nM brd (TC-5619/Bradanicline)
[9] = 50 nM CNL001, first column so headed
[10] = 50 nM CNL001, second column so headed
[11] = 100 nM CNL001, first column so headed
[12] = 100 nM CNL001, second column so headed
[13] = 300 nM brd (TC-5619/Bradanicline)
[14] = 1 uM CNL001, first column so headed
[15] = 1 uM CNL001, second column so headed

B1: CODA806: engineered receptor: Y115D, L131Q in SEQ ID NO: 33 (Chemogenic receptor-11) (protein)
chain: MRCSPGGVWLALAASLLHVSLQGEFQRKLYKELVKNYNPLERPVANDSQPLTVYFSLSLLQIMDVDEKNQVLTTNIWLQMSWTDHYLQWNVSEYPGVKTVRFPDGQIWKPDILLDNSADERFDATFHTNVQVNSSGHCQYLPPGIFKSSCPMDLKNFPMDVQTCKLKFGSWSYGGWSLDLQMQEADISGYIPNGEWDLVGIPGKRSERFYECCKEPYPDVTFTVTMRRRMGYYLIQMYIPSLLIVILSWISFWINMDAAPARVGLGITTVLTMTTQSSGSRASLPKVSYVKAIDIWMAVCLLFVFSALLEYAAVNFVSRQHKELLRFRRKRRHHKSPMLNLFQEDEAGEGRFNFSAYGMGPACLQAKDGISVKGANNSNTTNPPPAPSKSPEEMRKLFIQRAKKIDKISRIGFPMAFLIFNMFYWIIYKIVRREDVHNQ
modifications: synthetic sequence of chimeric LGIC
Question: Which “YFP fluorescence quenching using CNL001 (percent quench)” value [1] does the source give for B1 here?
Answer: 6.587%

Question: And the “YFP fluorescence quenching using CNL001 (percent quench)” value [2]?
Answer: −5.179%

Question: What about the “YFP fluorescence quenching using TC-5619/Bradanicline (percent quench)” value [3] of the same molecule?
Answer: 0.92%

Question: What about the “YFP fluorescence quenching using TC-5619/Bradanicline (percent quench)” value [4] of the same molecule?
Answer: −4.65%

Question: And the “YFP fluorescence quenching using CNL001 (percent quench)” value [5]?
Answer: −2.366%

Question: And the “YFP fluorescence quenching using CNL001 (percent quench)” value [6]?
Answer: −1.272%

Question: And the “YFP fluorescence quenching using TC-5619/Bradanicline (percent quench)” value [7]?
Answer: 0.38%

Question: And the “YFP fluorescence quenching using TC-5619/Bradanicline (percent quench)” value [8]?
Answer: −8.96%

Question: And the “YFP fluorescence quenching using CNL001 (percent quench)” value [9]?
Answer: 2.763%

Question: And the “YFP fluorescence quenching using CNL001 (percent quench)” value [10]?
Answer: 1.995%

Question: And the “YFP fluorescence quenching using ABT-126 (percent quench)” value (50 nM abt (ABT-126))?
Answer: −1.81%

Question: What about the “YFP fluorescence quenching using CNL001 (percent quench)” value [11] of the same molecule?
Answer: 3.091%

Question: What about the “YFP fluorescence quenching using CNL001 (percent quench)” value [12] of the same molecule?
Answer: 1.45%

Question: And the “YFP fluorescence quenching (percent quench)” value (100 nM CNL002)?
Answer: −10.03%

Question: And the “YFP fluorescence quenching using ABT-126 (percent quench)” value (100 nM abt (ABT-126))?
Answer: −2.61%

Question: And the “YFP fluorescence quenching using AZD-0328 (percent quench)” value (100 nM azd0328)?
Answer: 12.15%

Question: And the “YFP fluorescence quenching using TC-5619/Bradanicline (percent quench)” value (100 nM brd (TC-5619/Bradanicline))?
Answer: 12.18%

Question: And the “YFP fluorescence quenching using ABT-126 (percent quench)” value (300 nM abt (ABT-126))?
Answer: −3.78%

Question: What about the “YFP fluorescence quenching using AZD-0328 (percent quench)” value (300 nM azd0328) of the same molecule?
Answer: 30.92%

Question: What about the “YFP fluorescence quenching using TC-5619/Bradanicline (percent quench)” value [13] of the same molecule?
Answer: −0.3%

Question: What about the “YFP fluorescence quenching using CNL001 (percent quench)” value [14] of the same molecule?
Answer: 7.331%

Question: What about the “YFP fluorescence quenching using CNL001 (percent quench)” value [15] of the same molecule?
Answer: 9.103%

Question: What about the “YFP fluorescence quenching (percent quench)” value (1 uM CNL002) of the same molecule?
Answer: −3.33%

Question: And the “YFP fluorescence quenching using ABT-126 (percent quench)” value (1 uM abt (ABT-126))?
Answer: −2.6%

Question: And the “YFP fluorescence quenching using TC-5619/Bradanicline (percent quench)” value (1 uM brd (TC-5619/Bradanicline))?
Answer: 45.47%

Question: And the “YFP fluorescence quenching (percent quench)” value (10 uM ach (acetylcholine))?
Answer: 9.47%

Question: And the “YFP fluorescence quenching (percent quench)” value (30 uM CNL002)?
Answer: 6.96%

Question: What about the “YFP fluorescence quenching using AZD-0328 (percent quench)” value (30 uM azd0328) of the same molecule?
Answer: 68.65%

Question: What about the “YFP fluorescence quenching (percent quench)” value (100 uM ach (acetylcholine)) of the same molecule?
Answer: 6.12%

Question: What about the “YFP fluorescence quenching (percent quench)” value (1 mM ach (acetylcholine)) of the same molecule?
Answer: −1.56%

Question: What about the “YFP fluorescence quenching (percent quench)” value (3 mM ach (acetylcholine)) of the same molecule?
Answer: 17.57%

Question: What about the “YFP fluorescence quenching using Facinicline, 30 nM fac” value of the same molecule?
Answer: 41.32

Question: What about the “YFP fluorescence quenching using Facinicline, 100 nM fac” value (ligand Facinicline 100 nM) of the same molecule?
Answer: 59.51

Question: What about the “YFP fluorescence quenching using Facinicline, 300 nM fac” value of the same molecule?
Answer: 74.86

Question: And the “YFP fluorescence quenching using Facinicline, 10 uM fac” value (ligand Facinicline 10 uM)?
Answer: 78.53

Question: And the “YFP fluorescence quenching using Facinicline, 30 uM fac” value?
Answer: 84.45

Question: What about the “YFP fluorescence quenching using TC-6987, 1 uM tc6987” value of the same molecule?
Answer: 38.83

Question: And the “YFP fluorescence quenching using TC-6987, 10 uM tc6987” value?
Answer: 31.59

Question: And the “YFP fluorescence quenching using TC-6987, 500 uM tc6987” value?
Answer: 29.83

B2: CODA1025: engineered receptor: R101F, L131G in SEQ ID NO: 33 (protein)
chain: MRCSPGGVWLALAASLLHVSLQGEFQRKLYKELVKNYNPLERPVANDSQPLTVYFSLSLLQIMDVDEKNQVLTTNIWLQMSWTDHYLQWNVSEYPGVKTVFFPDGQIWKPDILLYNSADERFDATFHTNVGVNSSGHCQYLPPGIFKSSCPMDLKNFPMDVQTCKLKFGSWSYGGWSLDLQMQEADISGYIPNGEWDLVGIPGKRSERFYECCKEPYPDVTFTVTMRRRMGYYLIQMYIPSLLIVILSWISFWINMDAAPARVGLGITTVLTMTTQSSGSRASLPKVSYVKAIDIWMAVCLLFVFSALLEYAAVNFVSRQHKELLRFRRKRRHHKSPMLNLFQEDEAGEGRFNFSAYGMGPACLQAKDGISVKGANNSNTTNPPPAPSKSPEEMRKLFIQRAKKIDKISRIGFPMAFLIFNMFYWIIYKIVRREDVHNQ
modifications: synthetic sequence of chimeric LGIC
Question: Which results are given for B2?
Answer: YFP fluorescence quenching using CNL001 (percent quench) [1]: −18.527%; YFP fluorescence quenching using CNL001 (percent quench) [2]: −21.577%; YFP fluorescence quenching using TC-5619/Bradanicline (percent quench) [3]: −10.61%; YFP fluorescence quenching using TC-5619/Bradanicline (percent quench) [4]: 2.63%; YFP fluorescence quenching using CNL001 (percent quench) [5]: 14.063%; YFP fluorescence quenching using CNL001 (percent quench) [6]: 49.818%; YFP fluorescence quenching using TC-5619/Bradanicline (percent quench) [7]: 17.71%; YFP fluorescence quenching using TC-6683 (percent quench) (30 nM TC-6683): −1.645%; YFP fluorescence quenching using TC-5619/Bradanicline (percent quench) [8]: 68.48%; YFP fluorescence quenching using CNL001 (percent quench) [9]: 77.765%; YFP fluorescence quenching using CNL001 (percent quench) [10]: 79.23%; YFP fluorescence quenching using ABT-126 (percent quench) (50 nM abt (ABT-126)): −11.53%; YFP fluorescence quenching using CNL001 (percent quench) [11]: 80.544%; YFP fluorescence quenching using CNL001 (percent quench) [12]: 80.695%; YFP fluorescence quenching (percent quench) (100 nM CNL002): 12.48%; YFP fluorescence quenching using ABT-126 (percent quench) (100 nM abt (ABT-126)): −7.61%; YFP fluorescence quenching using AZD-0328 (percent quench) (100 nM azd0328): 6.26%; YFP fluorescence quenching using TC-6683 (percent quench) (300 nM TC-6683): 3.043%; YFP fluorescence quenching using ABT-126 (percent quench) (300 nM abt (ABT-126)): 6.55%; YFP fluorescence quenching using AZD-0328 (percent quench) (300 nM azd0328): 37.98%; YFP fluorescence quenching using TC-5619/Bradanicline (percent quench) [13]: 75.12%; YFP fluorescence quenching using CNL001 (percent quench) [14]: 81.191%; YFP fluorescence quenching using CNL001 (percent quench) [15]: 82.385%; YFP fluorescence quenching (percent quench) (1 uM CNL002): 46.04%; YFP fluorescence quenching using ABT-126 (percent quench) (1 uM abt (ABT-126)): 25.08%; YFP fluorescence quenching using TC-6683 (percent quench) (3 uM TC-6683): 0.082%; YFP fluorescence quenching (percent quench) (10 uM ach (acetylcholine)): 12.57%; YFP fluorescence quenching (percent quench) (30 uM CNL002): 39.82%; YFP fluorescence quenching using TC-6683 (percent quench) (30 uM TC-6683): 2.449%; YFP fluorescence quenching using AZD-0328 (percent quench) (30 uM azd0328): 79.31%; YFP fluorescence quenching (percent quench) (50 uM ach (acetylcholine)): −3.46%; YFP fluorescence quenching using TC-6683 (percent quench) (100 uM TC-6683): 10.437%; YFP fluorescence quenching (percent quench) (100 uM ach (acetylcholine)): 12.65%; YFP fluorescence quenching (percent quench) (300 uM ach (acetylcholine)): −6.96%; YFP fluorescence quenching (percent quench) (500 uM ach (acetylcholine)): −6.77%; YFP fluorescence quenching (percent quench) (1 mM ach (acetylcholine)): 19.42%; YFP fluorescence quenching (percent quench) (3 mM ach (acetylcholine)): 65.06%; YFP fluorescence quenching using Facinicline, 30 nM fac: −8.99; YFP fluorescence quenching using Facinicline, 300 nM fac: 10.21; YFP fluorescence quenching using Facinicline, 30 uM fac: 78.24; YFP fluorescence quenching using TC-6987, 1 uM tc6987: −13.32; YFP fluorescence quenching using TC-6987, 10 uM tc6987: 43.71; YFP fluorescence quenching using TC-6987, 500 uM tc6987: 53.98; YFP fluorescence quenching using Varenicline, 3 nM var (first column): 48.074; YFP fluorescence quenching using Varenicline, 3 nM var (second column): 60.978; YFP fluorescence quenching using Varenicline, 30 nM var (first column): 70.023; YFP fluorescence quenching using Varenicline, 30 nM var (second column): 69.433; YFP fluorescence quenching using Varenicline, 300 nM var (first column): 78.989; YFP fluorescence quenching using Varenicline, 300 nM var (second column): 79.21; YFP fluorescence quenching using Varenicline, 500 nM var (first column): 79.212; YFP fluorescence quenching using Varenicline, 500 nM var (second column): 79.771; YFP fluorescence quenching using Varenicline, 1 uM var (first column): 79.538; YFP fluorescence quenching using Varenicline, 1 uM var (second column): 80.577
